Data from paper PMC12808100, “The non-catalytic DNA polymerase ε subunit is an NPF motif recognition protein” (Nature Communications, 2025).

B1: NUP35 (protein, UniProt Q8NFH5 1-326, looked up)
Nucleoporin NUP35: MAAFAVEPQGPALGSEPMMLGSPTSPKPGVNAQFLPGFLMGDLPAPVTPQPRSISGPSVGVMEMRSPLLAGGSPPQPVVPAHKDKSGAPPVRSIYDDISSPGLGSTPLTSRRQPNISVMQSPLVGVTSTPGTGQSMFSPASIGQPRKTTLSPAQLDPFYTQGDSLTSEDHLDDSWVTVFGFPQASASYILLQFAQYGNILKHVMSNTGNWMHIRYQSKLQARKALSKDGRIFGESIMIGVKPCIDKSVMESSDRCALSSPSLAFTPPIKTLGTPTQPGSTPRISTMRPLATAYKASTSDYQVISDRQTPKKDESLVSKAMEYMFGW
B2: LDB1 (protein, UniProt Q86U70 2-411, looked up)
LIM domain-binding protein 1: SVGCACPGCSSKSFKLYSPKEPPNGNAFPPFHPGTMLDRDVGPTPMYPPTYLEPGIGRHTPYGNQTDYRIFELNKRLQNWTEECDNLWWDAFTTEFFEDDAMLTITFCLEDGPKRYTIGRTLIPRYFRSIFEGGATELYYVLKHPKEAFHSNFVSLDCDQGSMVTQHGKPMFTQVCVEGRLYLEFMFDDMMRIKTWHFSIRQHRELIPRSILAMHAQDPQMLDQLSKNITRCGLSNSTLNYLRLCVILEPMQELMSRHKTYSLSPRDCLKTCLFQKWQRMVAPPAEPTRQQPSKRRKRKMSGGSTMSSGGGNTNNSNSKKKSPASTFALSSQVPDVMVVGEPTLMGGEFGDEDERLITRLENTQFDAANGIDDEDSFNNSPALGANSPWNSKPPSSQESKSENPTSQASQ
B3: PYGB (protein, UniProt P11216 2-843, looked up)
Glycogen phosphorylase, brain …: AKPLTDSEKRKQISVRGLAGLGDVAEVRKSFNRHLHFTLVKDRNVATPRDYFFALAHTVRDHLVGRWIRTQQHYYERDPKRIYYLSLEFYMGRTLQNTMVNLGLQNACDEAIYQLGLDLEELEEIEEDAGLGNGGLGRLAACFLDSMATLGLAAYGYGIRYEFGIFNQKIVNGWQVEEADDWLRYGNPWEKARPEYMLPVHFYGRVEHTPDGVKWLDTQVVLAMPYDTPVPGYKNNTVNTMRLWSAKAPNDFKLQDFNVGDYIEAVLDRNLAENISRVLYPNDNFFEGKELRLKQEYFVVAATLQDIIRRFKSSKFGCRDPVRTCFETFPDKVAIQLNDTHPALSIPELMRILVDVEKVDWDKAWEITKKTCAYTNHTVLPEALERWPVSMFEKLLPRHLEIIYAINQRHLDHVAALFPGDVDRLRRMSVIEEGDCKRINMAHLCVIGSHAVNGVARIHSEIVKQSVFKDFYELEPEKFQNKTNGITPRRWLLLCNPGLADTIVEKIGEEFLTDLSQLKKLLPLVSDEVFIRDVAKVKQENKLKFSAFLEKEYKVKINPSSMFDVHVKRIHEYKRQLLNCLHVVTLYNRIKRDPAKAFVPRTVMIGGKAAPGYHMAKLIIKLVTSIGDVVNHDPVVGDRLKVIFLENYRVSLAEKVIPAADLSQQISTAGTEASGTGNMKFMLNGALTIGTMDGANVEMAEEAGAENLFIFGLRVEDVEALDRKGYNAREYYDHLPELKQAVDQISSGFFSPKEPDCFKDIVNMLMHHDRFKVFADYEAYMQCQAQVDQLYRNPKEWTKKVIRNIACSGKFSSDRTITEYAREIWGVEPSDLQIPPPNIPRD
B4: DOK1 (protein, UniProt Q99704 1-481, looked up)
Docking protein 1: MDGAVMEGPLFLQSQRFGTKRWRKTWAVLYPASPHGVARLEFFDHKGSSSGGGRGSSRRLDCKVIRLAECVSVAPVTVETPPEPGATAFRLDTAQRSHLLAADAPSSAAWVQTLCRNAFPKGSWTLAPTDNPPKLSALEMLENSLYSPTWEGSQFWVTVQRTEAAERCGLHGSYVLRVEAERLTLLTVGAQSQILEPLLSWPYTLLRRYGRDKVMFSFEAGRRCPSGPGTFTFQTAQGNDIFQAVETAIHRQKAQGKAGQGHDVLRADSHEGEVAEGKLPSPPGPQELLDSPPALYAEPLDSLRIAPCPSQDSLYSDPLDSTSAQAGEGVQRKKPLYWDLYEHAQQQLLKAKLTDPKEDPIYDEPEGLAPVPPQGLYDLPREPKDAWWCQARVKEEGYELPYNPATDDYAVPPPRSTKPLLAPKPQGPAFPEPGTATGSGIKSHNSALYSQVQKSGASGSWDCGLSRVGTDKTGVKSEGST
B5: URM1 (protein, UniProt Q9BTM9 1-101, looked up)
Ubiquitin-related modifier 1: MAAPLSVEVEFGGGAELLFDGIKKHRVTLPGQEEPWDIRNLLIWIKKNLLKERPELFIQGDSVRPGILVLINDADWELLGELDYQLQDQDSVLFISTLHGG
B6: ATAD3A (protein, UniProt Q9NVI7 2-586, looked up)
ATPase family AAA …: SWLFGINKGPKGEGAGPPPPLPPAQPGAEGGGDRGLGDRPAPKDKWSNFDPTGLERAAKAARELEHSRYAKDALNLAQMQEQTLQLEQQSKLKEYEAAVEQLKSEQIRAQAEERRKTLSEETRQHQARAQYQDKLARQRYEDQLKQQQLLNEENLRKQEESVQKQEAMRRATVEREMELRHKNEMLRVEAEARARAKAERENADIIREQIRLKAAEHRQTVLESIRTAGTLFGEGFRAFVTDWDKVTATVAGLTLLAVGVYSAKNATLVAGRFIEARLGKPSLVRETSRITVLEALRHPIQVSRRLLSRPQDALEGVVLSPSLEARVRDIAIATRNTKKNRSLYRNILMYGPPGTGKTLFAKKLALHSGMDYAIMTGGDVAPMGREGVTAMHKLFDWANTSRRGLLLFVDEADAFLRKRATEKISEDLRATLNAFLYRTGQHSNKFMLVLASNQPEQFDWAINDRINEMVHFDLPGQEERERLVRMYFDKYVLKPATEGKQRLKLAQFDYGRKCSEVARLTEGMSGREIAQLAVSWQATAYASEDGVLTEAMMDTRVQDAVQQHQQKMCWLKAEGPGRGDEPSPS
B7: CAPN6 (protein, UniProt Q9Y6Q1 1-641, looked up)
Calpain-6: MGPPLKLFKNQKYQELKQECIKDSRLFCDPTFLPENDSLFYNRLLPGKVVWKRPQDICDDPHLIVGNISNHQLTQGRLGHKPMVSAFSCLAVQESHWTKTIPNHKEQEWDPQKTEKYAGIFHFRFWHFGEWTEVVIDDLLPTINGDLVFSFSTSMNEFWNALLEKAYAKLLGCYEALDGLTITDIIVDFTGTLAETVDMQKGRYTELVEEKYKLFGELYKTFTKGGLICCSIESPNQEEQEVETDWGLLKGHTYTMTDIRKIRLGERLVEVFSAEKVYMVRLRNPLGRQEWSGPWSEISEEWQQLTASDRKNLGLVMSDDGEFWMSLEDFCRNFHKLNVCRNVNNPIFGRKELESVLGCWTVDDDPLMNRSGGCYNNRDTFLQNPQYIFTVPEDGHKVIMSLQQKDLRTYRRMGRPDNYIIGFELFKVEMNRKFRLHHLYIQERAGTSTYIDTRTVFLSKYLKKGNYVLVPTMFQHGRTSEFLLRIFSEVPVQLRELTLDMPKMSCWNLARGYPKVVTQITVHSAEDLEKKYANETVNPYLVIKCGKEEVRSPVQKNTVHAIFDTQAIFYRRTTDIPIIVQVWNSRKFCDQFLGQVTLDADPSDCRDLKSLYLRKKGGPTAKVKQGHISFKVISSDDLTEL
B8: FBXO45 (protein, UniProt P0C2W1 2-286, looked up)
F-box/SPRY domain-containing …: AAPAPGAGAASGGAGCSGGGAGAGAGSGSGAAGAGGRLPSRVLELVFSYLELSELRSCALVCKHWYRCLHGDENSEVWRSLCARSLAEEALRTDILCNLPSYKAKIRAFQHAFSTNDCSRNVYIKKNGFTLHRNPIAQSTDGARTKIGFSEGRHAWEVWWEGPLGTVAVIGIATKRAPMQCQGYVALLGSDDQSWGWNLVDNNLLHNGEVNGSFPQCNNAPKYQIGERIRVILDMEDKTLAFERGYEFLGVAFRGLPKVCLYPAVSAVYGNTEVTLVYLGKPLDG
B9: PITPNA (protein, UniProt Q00169 2-270, looked up)
Phosphatidylinositol transfer …: VLLKEYRVILPVSVDEYQVGQLYSVAEASKNETGGGEGVEVLVNEPYEKDGEKGQYTHKIYHLQSKVPTFVRMLAPEGALNIHEKAWNAYPYCRTVITNEYMKEDFLIKIETWHKPDLGTQENVHKLEPEAWKHVEAVYIDIADRSQVLSKDYKAEEDPAKFKSIKTGRGPLGPNWKQELVNQKDCPYMCAYKLVTVKFKWWGLQNKVENFIHKQERRLFTNFHRQLFCWLDKWVDLTMDDIRRMEEETKRQLDEMRQKDPVKGMTADD

molecular target: His6-avi-MBP-tagged POLE2; assay: Single-point nHU-MS with recombinant His6-avi-MBP-POLE2 bait, Jurkat extract; format: binding, human; conditions: significant apparent affinity of endogenous prey protein for POLE2 bait; single-point nHU-MS; Figure S11
Excerpt: So far, our study only focused on a few hand-picked NPF motifs and studied them as short synthetic peptides. However, many other proteins may be present in the proteome that could bind to POLE2 and their putative NPF motifs are embedded in their natural structures that can greatly affect their binding properties. To investigate interactions between POLE2 and intact, full length proteins proteome-wide, we used nHU-MS experiments with recombinant His6-avi-MBP-tagged POLE2 as bait and purified His6-avi-MBP as a control. Even though we are aware that this recombinant POLE2 may bind to NPF motifs with a somewhat altered affinity, we assumed that this would affect all NPF motif-mediated interactions equally, allowing an unbiased affinity ranking of all identified partners. Single point nHU measurements were performed at 26 μM POLE2 concentration and the recovered supernatant was measured by label free proteomic MS measurements (Fig. 3A, Supplementary Figs. 8A, 9, Supplementary Data 1).
Single-point nHU experiments with protein baits were carried out nearly identically with two key modifications. First, the resin saturation step was carried out by mixing 50 μl streptavidin resin with 0.5−1 ml 50 μM biotinylated protein solution and the mixture was incubated for 1.5 h at 4 °C with constant agitation. Second, instead of using estimated bait concentrations, we measured it experimentally. An extra aliquot of resin stock was prepared alongside the nHU samples that were identically processed that were used to eluate the immobilized proteins under harsh conditions, in order to experimentally quantify the Cbait by using densitometry of Coomassie stained SDS-PAGE that included a protein calibration series. For this, 50 μl bait-saturated resin aliquots were mixed with 200 μl 4x Laemmli Sample Buffer (120 mM Tris-HCl pH 7, 8% SDS, 100 mM DTT, 32% glycerol, 0.004% bromphenol blue, 1% β-mercaptoethanol), instead of cell extract. After 15 min incubation at 95 °C, these samples were analyzed by SDS-PAGE using protein calibration standard, made from recombinant MBP. Densitometry was carried out after Coomassie staining on raw Tif images by using Fiji ImageJ 1.53c and experimental bait concentration were determined by adjusting for molecular weight differences between MBP and MBP-POLE2 constructs.
Samples were digested overnight at 37 °C.

Row | Molecule | pKapp_sign
1 | B1 | 4.141
2 | B2 | 4.689
3 | B3 | 4.228
4 | B4 | 4.232
5 | B5 | 4.219
6 | B6 | 4.126
7 | B7 | 5.695
8 | B8 | 4.883
9 | B9 | 4.604
